Experiment: protease stability score; higher = more stable; yeast display proteolysis, trypsin and chymotrypsin;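 note: relative to predicted unfolded state with 0 unfolded-like and 1 meaning tenfold more protease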

DHHEEIMVTIMELLVRWLETGDEKSLVELLDPDVRHDVNGVDLHGREHVSRWMREHLERYDHLEVEITHIEVQGDKVHLDGTLILIFNGRNVVMKVHIHTIIVNGRAHELRFRTE
protease stability score: 0.698

DHHEELRHWFLEIYRRIMITGDEKELEKLIDPHAKLRINGREHVGMEYIQRIFDLLRHEIRFKDMDIREYHLVDGQIDDHSVLTLHINGKEVTRETRIVNRKVNGRWKIEVESIH
protease stability score: 0.622

DHHEELVERIAREWIHAWKTGDEKRLRELMDPHVRMNFNGQELHGRELVTNFLHEFLERFDHQEHHIKRFTVVNGVMHIDGELDLNFDGRRYRHRVHIHIFVFDGRVKHVEIEIR
protease stability score: 2.29

DHHEETIRHFAKLWVELWLTGDEKSLQTLADPHVRVHINGVDLHGRDAIHHFLRRIEERYKGLRIDVEEQRIVNGRTEMITEIHIGDKVWRTRLHVVVVDGRIHELSFKDE
protease stability score: 2.25

DHHEHDTKILMDLWLHALTTGDWRLLAELADPHVRFEVEFDGRRIEYHGRHSFEEHMKRLVDKIKNLTLTIHDVRVIGDFVHIEGETTWDGRTSSIHIHLKVINGRVKHIKVEER
protease stability score: 1.92

DHHEKHLKHIFHLYIRAWITGNEKEMQDLADPNVRMHVGDKHVHGREEVRRLHHHLLTHIRLDHFHIDDHRVYDGVVEVKGIEDHNVNGQRHRFESTWIIVIVNGRIEEIEIRVH
protease stability score: 1.16

DHHKESSEYLVRDYYEYIETGDFKRMEELADPNMKVVVGDKTHHGRESLSVVYLRLGIKHWDIKRIHNIGNKIRIHSTIFVDGVDMHEHSHAEKIDGRWLLRELSFE
protease stability score: 0.319

DHHRKETEELAELFFENLLTGNWEIHEHLLDPDVKLEQGDKINVGRESYSEWLEYVKKHIRIRDWKIRHVHVFNGRVHLETEVHMEYGDKHHVVDMHISIDVINGRFKTVRIEIK
protease stability score: 2.1

DHIDEDAAHVSRVLLTLLRTGDEETLFQLLDPNMRVDVNGVELHGREEWWKHVYRRNKELGMEVKYHLHKLTVINGVAHIDFRIEIYIGDKRIEYRHEVHIEKINGVWLVREIREG
protease stability score: 1.47

DHIEEDIEEAERIMKEVNHTGDWETLERNFDPNVRLDIDGRTFHGMETYTKWFREIRIEDSRVKSIELQGDKIRYDTILHGIINGKRDTVKTHLIAVKVNGRWFIKVYSLH
protease stability score: 1.05

DHIEEELIRWLELLRNALETGDEELVVKLVDPRYRLIIGDKHHHGMEEWSKILKEESERVKNARIELHLRHLRLFNGQADMEVENVVRYNGVTIIIDVRIHLLKVNGRWKEREVREG
protease stability score: 1.33

DHKDELAHRLVEHILKLLLTGDEEHWYELLDPNVRIHINGRNSVGREEALKVIQFFWELLGVKHIELKEVRFQGDKVHSDTRLDINGVKSRVRIEVIIINGRIDEVRIDIR
protease stability score: 2.25

DHKDELNEHIMKVWIHFLETGDEEFLYDLMDPHARLDFNGREIHGREILYEFWKRWNKRFPNRIDFLDSVRVIGDKVEMDTTLRIDGVRHETEIRIHVYDGKLKHIEYHIR
protease stability score: 1.4

DHKEARDVAQTMMHLLKHGDFEQIVRNADPNAHFVVGDKEYHGRDNLRKVLKRLHDQVDHISFRTYKVDEDTAKLDATVQINGRNYRMDVLVHFHNGRIKDLNIKVTDEDTQREADK
protease stability score: 1.57

DHKTKMREHAVHEWFDDVITGDERRIREYADPNVRIDIDINGRHEELHGRELFSEILTRFKNVQVEIKHVNHIGDKLHIHFRVHIDGREENVIIIMHKVDGKWVTKRFIIDDA
protease stability score: 1.05

DHLDERAERFFLKLVENLLTGNEEIWEELIDPNMRFHAENHSDHGWEVIRRWMERLIERFDHIEIRVHRLRFQGDKVHSDVRVHYEQGDKREEINMHIIIIIINGRIHTIRLIIL
protease stability score: 0.308

DHLEDDLDHYIRVLIKSWQTGDEELTEKLIDPRVRVEVGDKEFHGRKIFSEIAVHWRIKHHTIEHINTVGDKATIHSHVVLHFDGREITTTTIYFIEKVNGKWLLKSMHIQ
protease stability score: 2.5

DHLEDTFRELTRILWEALHTGDWEIRRHYADPNARFQMHINGVELRDHGMDQLSRKYEEWYRRVDHYEVRIKDRRYQGDKMIIHVHIRVKINGKEIHYDVILYIIVVNGRIEEESEEVR
protease stability score: 1.34

DHLEEDSERAKELFIKVFKTGDEHIIKEMIDPHARLDWNGQEFHGREEVTRVMHELLEEYGIKHLHVRRFKVVNGRVEIDTELRQGDYRDESIIIILKVNGKWLIHSIEFK
protease stability score: 2.12

DHLEEIADKMAKDFIHIFLTGDEHLHNRLADPNVRLHVNGRDSHGRENWSRMLTQILREMRVKDIKITSSEVQGEWSVSRTRMNVDIDGKVEEIETEIIILVVNGKLESSTIVID
protease stability score: -0.103

DHLEELHETITKLWLEARRTGDEHLFRELMDPHVRIHIGDFEHHGREEALKAFDDIDRHLGVKHHHVDSWHVVNGQMIIDGRLHFDGQTRKVHIDLVIIDGRIEEIREEIR
protease stability score: 0.617

DHLHEDSKEAFHLWKELSRTGDPKEFADNVDPNVRILINGKRYHGMEHLEHLMMELGIKHSEITRIDTIGDKLHLDGHNRFNGRTVDVHILSNKINGRWVIEEVEVL
protease stability score: 1.14

DHLRELMERVLERYRRALETGNFEELRNLADPHYRVDIDGQELIGMDEYKRHLIKIKNLKIHHVEIKDVKVQGDKAHVDQEDDIEFDGRRMRLRLHYIWLKFNGRWLLHSMEVE
protease stability score: 1.85

DHLRHTVERMVLHLLRLSLTGDEEEWLKLLDPNTKLEVGDKTRHGREDVAQFLLEMRVERVEVSDYRFNNVNGVVRVEIDGHFDFEYDGKREDSRVEIYLLFEKVNGKWHLKFVKVVFK
protease stability score: 1.69

DHMDEELKEFLRHFLEYFRTGDFDSLYKLIDPHVKSDINGQEIHGMDLQSFWHRHIRERLGVNHMHIEITEIRYINGRAEVYGKLEVNVNGKRFEHDVHMFNLKVDGKWILESLEIR
protease stability score: 2.28

DHMEEDVRVAVKIWEETYRTGDEQEINDLVDPNVRVNINGQDYHGRHWLRQIIIEDRRRADHIEIRIDHIEVIGDKVILRGLVIMIQGDKRFDIRMRIFDRKVNGRWHLHNLEQE
protease stability score: 2.08

DHMERLLKHVARLFIHALHTGDESILTDLLDPNVRVHIHIGDKEIRLHGREHVRHYLEHELTHWRTEFHLTHFDIVGNKFENHTNVIIRIDGVEIRLDRRHEVVLYDGKIEEVIVRVE
protease stability score: 2.37

DHNKEAADHILHLLRQSWRTGDEEIFQRLIDPNVKLQVGDKQFHGREEVTRWIQLYLLRFKGITIHDIEVKEVRTYDGRVEAREIHHNHVNGQDHSLDVHLYIVKVNGQWRLESMHVN
protease stability score: 1.77

DHNKELWERIAEWLIRLQETGNEEELMKNMDPHTRLLVNGVTAHGRDTVTHYYREFLKELGVDVLELKRVHVQGEKVENDGQLHYNGKTHHSRINFFVINGRIHHIELHFE
protease stability score: 0.745

DHQEEEAKEFTELLMRNLFTGDEDSLQEMLDPHVRIEVDIGDKHRHHHGREEISHFLVRLQHELGVDHIRLSHIEVFNGRAEVHIESYIGNKRSENVFVVTKFNGVWRVQRIIIRVE
protease stability score: 1.2

DHQEESRSKFLNDILRIQRTGDFEKIYENVDPDVRIHIGDKEWHGREQATKVLTEWRVEHFDLKSMHIQGDKVHIHGHMIYNINGQERRSDIEIVLLKFNGRWFIHSMRID
protease stability score: 1.67

DHQEHIIKVSLEILLESARTGDERSLERLFDPNVRIINENEERHGREALEILLKRIDHIHHLNIRDTRIQGDFLITEVHVRINVNGVHIQNDMVLYAWKVNGRWHIRSIEFK
protease stability score: 1.39

DHQEKRTTEANEMFREAIETGDEKTLTRLVDPNVKIIVGDKRYHGREWFLHLMLHEILHLRVRIHTEDYRVVDGRIEFITHLEIEIGDKTVRRETFVFVDKINGRWLYQSFQDG
protease stability score: 0.773

DHQERHLREFAHEVEEAWHTGDWKDMFRLFDPNTRVDFHFENHDLHLHGRESMVRFIRDFLDKFKNIRLQLTSRDRQGDKVHLTEEFHINGRIMVIHVNFDIVNGKWKRLELDFIDT
protease stability score: 1.25

DHQRDLLKEARERLLHSIETGDEELWRRLFDPETLLIAENHSSHGREARHDWKKRFDVIDHLEIRTRDVDMIGDKIYVEGKLDYITKYDGVTRNYTNTVHFIATKINGRWVIESVRFE
protease stability score: 1.09

DHRDEVFEELVRLIIHFLETGDWKSLEELADPNVRVTVFYNGRQDNNIGRKQWAEAWERLLHLLGIKHHHMHRYHIQGDKIHIIMNFVVNGQEFTVHIDITVFNGRMKSSRIHVE
protease stability score: 1.27

DHRDRYAEEVAHRLLKLRHTGDEEIYHEFADPNDRLIIWIGDKSIHSHGRSLVVQVLRRLHEHWRLEDMFIHDEKLVGEKSNMDIHVVGNINGKRMETTEKFTVRVINGRLHTLEIHLD
protease stability score: 0.474

DHREEEQKRLTEEFITALKTGDEERWKELLDPNVKMHINGKDVVGREIAAKDLLDHWKNLGIKHIITHRIELQGEKVRIDTEERFNGRSVKTTMIIIVINGRLESFEFHVH
protease stability score: 0.653

DHREEESKRYLDDYSRAVTTGDEDRLTELLDPNTKLNYNGQEYHGMEKYKEVLHKILTEIRFESHHVETFRVVGNKLQLDTHIKGHINGKHIRLETHVDIVKINGRWLIDSVRFQ
protease stability score: 0.29

DHREEHDHEISELMREALLTGDEQLISHLADPNVRFEVFVGDKVIRWVGRESMMEAFERWVREIRIEDLKVKHVDIFNGRVDVVTTLHVEFDGRKHDLETRLIFEVVDGKVKHLQVHHH
protease stability score: 1.36

DHREELLHRIYELWEMVQTTGDFEKLTDLLDPDVYVNINGRNLIGRELRIRFMREIRMEIKHYKHERFHFQGDKAHIHGRLDREINIGDKHHREDITIDVHLFVIDGVIRSFEIRLI
protease stability score: 1.33

DHREHRSHRIAEWILRNLVTGNEDEISKLLDPDARVIINGQEVIGREEINRMLRHVFNEIRIHDIEIRDLEIQGEFAFVDTRLDGEFDGRRIKQKSELRIVVINGRVRELEIRIH
protease stability score: 1.52

DHREKELEKMARIFIHNLVTGDWRSLEKLADPDAKSEVIIGDKHIEHVGRHEVWKMLFEIRWEQVEVHDIRIYNGRVEIDGHMKGDIDGRRIETDTKIRLTIVNGVVQTFHMEIR
protease stability score: 2.23

DHREKEVHFMAKWIVEIFQTGDEDMWRHLADPDVRLDIVQGEKRDNNVGREVSEKTLKELRHHWGLERVEVRVDHIDHQGDKARVDGTVNINGVHFKTEIVIIVVDGRFKRVKYIIG
protease stability score: 1.39

DHRESLRDDMEELLLEVIHTGDWHNYLKLLDPNARLVVGDKEYMGRERVLHWFKEKLDKIPGAKIELEDKREIGNKVELDFDMHVGDKSLRLHIDLRKVNGRWLIEHIEIR
protease stability score: 1.47

DHTEHDARLVMEIWLRILLTGDWETLEKMLDPHVRLQINIGDKRHTHHGREDFLKRLYDLIRELGVDHWTLDEKRVQGNKTRARVTMYVGDKSYDVEIILVAVNGRIREVTIEIH
protease stability score: 2.08

DHTHEAVEHLWKLLLHAIATGDFRILSHLLDPNVRIIFNGRTLVGRQSLEILLKRFDHEKIEEVRLRSTRIQGNFVDLDTEIIMVLHYDGKEYRIHTETHVHVVKVDGRWLIEELRID
protease stability score: 2.62

DHTKKMAEEALRDFWRDFRTGDEDSLNKMADPNVRILIGDKEVVGRERMVELFREVLKKYKNARVITDIEDLDDQGNWVHSDVRFHLHVGDKTVDIEREIVMRKVNGRWYIETHVVK
protease stability score: 0.397

DHVDEETEKMTNEITKALLTGDEDRLLELADPHVRVIVHVGDKTIHLVGRELMVEEYRRWVKEAGFDKVHHEKKHSDFVDGRAEVHSKVDVGDKHVEYRIIITKVNGKWVIKSIIIIVR
protease stability score: 2.15

DHVEEDARTRLKLFLTHWLTGDEHSTNELFDPNVRIDVNGKIIVGRHVLSEEWSRLGIKHSILHIDHIHIDEDEIHIDGILRLIFENHVLDLRVNLHAEKYDGRWHSSEVQVK
protease stability score: 1.25

From the NTF2 design screens of Basanta et al. (2020)
